Data as given in patent US12589164.

Tests used:
[1] = tested on: D-Arg-Lys (DNP)-Ala-Ile-Ala-Leu-His-Gln-Ser-Arg-Ser-Lys (MCA)-D-Arg (SEQ ID NO: 658)
[2] = tested on: (MCA)-His-Gln-Ser-Arg-Ser-Ala-Ile-Ala-Leu-Gly-Ser-Lys (DNP)-D-Arg (SEQ ID NO: 655)
[3] = tested on: peptide probe with CM HQSRAGPWGLL (SEQ ID NO: 645)
[4] = tested on: peptide probe with CM HQSRSGPWGLA (SEQ ID NO: 650)
[5] = tested on: (MCA)-Ser-Pro-Trp-Gly-Leu-His-Gln-Ser-Lys-Ser-Lys (DNP)-D-Arg (SEQ ID NO: 664)
[6] = tested on: peptide probe with CM HASRSGPWGLL (SEQ ID NO: 642)
[7] = tested on: (MCA)-His-Gln-Ser-Arg-Ser-Gly-Pro-Trp-Gly-Leu-X1-Lys (DNP)-D-Arg (SEQ ID NO: 659) where X1 is absent
[8] = tested on: (MCA)-His-Gln-Ser-Arg-Ser-Ala-Ile-Ala-Leu-X1-Gly-Lys (DNP)-D-Arg (SEQ ID NO: 654) where X1 is Y
[9] = tested on: (MCA)-Ser-Pro-Trp-Gly-Leu-His-Gln-Ser-Arg-Gly-Lys (DNP)-D-Arg (SEQ ID NO: 663)
[10] = tested on: (MCA)-His-Gln-Ser-Arg-Pro-Trp-Gly-Leu-Gly-Ser-Lys (DNP)-D-Arg (SEQ ID NO: 660)
[11] = tested on: peptide probe with CM HQSRSGPWGAL (SEQ ID NO: 649)
[12] = tested on: (MCA)-His-Gln-Ser-Arg-Ser-Pro-Trp-Gly-Leu-Gly-Lys (DNP)-D-Arg (SEQ ID NO: 665)
[13] = tested on: peptide probe with CM HQSASGPWGLL (SEQ ID NO: 644)
[14] = tested on: peptide probe with CM HQARSGPWGLL (SEQ ID NO: 643)
[15] = tested on: peptide probe with CM HQSRSGAWGLL (SEQ ID NO: 647)
[16] = tested on: (MCA)-His-Gln-Ser-Arg-Ser-Ala-Ile-Ala-Leu-X1-X2-Lys (DNP)-D-Arg (SEQ ID NO: 653) where X1 is Y and X2 is A
[17] = tested on: peptide probe with CM HQSRSAPWGLL (SEQ ID NO: 646)
[18] = tested on: (MCA)-His-Gln-Ser-Arg-Ser-Pro-Trp-Gly-Gly-Ser-Lys (DNP)-D-Arg (SEQ ID NO: 661)
[19] = tested on: peptide probe with CM HQSRSGPAGLL (SEQ ID NO: 639)
[20] = tested on: peptide probe with CM HQSRSGPWALL (SEQ ID NO: 648)
[21] = tested on: (MCA)-Ser-Pro-Trp-Gly-Leu-His-Gln-Ser-Arg-Ser-Lys (DNP)-D-Arg (SEQ ID NO: 657)
[22] = tested on: peptide probe with CM AQSRSGPWGLL (SEQ ID NO: 641)

Sequence of MMP9 (chain, as listed by the source): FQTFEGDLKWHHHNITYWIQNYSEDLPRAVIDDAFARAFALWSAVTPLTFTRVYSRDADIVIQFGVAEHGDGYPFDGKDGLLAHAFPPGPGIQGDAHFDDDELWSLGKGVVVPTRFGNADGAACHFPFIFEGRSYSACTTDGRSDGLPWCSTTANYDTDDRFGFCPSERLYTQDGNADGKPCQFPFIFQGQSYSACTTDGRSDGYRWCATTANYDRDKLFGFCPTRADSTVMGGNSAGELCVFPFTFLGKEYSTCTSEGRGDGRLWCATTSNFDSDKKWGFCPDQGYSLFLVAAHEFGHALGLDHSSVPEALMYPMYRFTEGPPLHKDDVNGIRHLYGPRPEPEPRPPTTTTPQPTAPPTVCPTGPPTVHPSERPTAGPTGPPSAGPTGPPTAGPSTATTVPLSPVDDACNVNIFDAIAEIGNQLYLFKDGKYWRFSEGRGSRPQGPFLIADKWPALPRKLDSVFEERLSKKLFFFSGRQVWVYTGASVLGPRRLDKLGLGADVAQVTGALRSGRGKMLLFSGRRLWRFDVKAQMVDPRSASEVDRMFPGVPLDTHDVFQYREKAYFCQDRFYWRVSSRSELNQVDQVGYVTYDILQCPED

## MMP9
[1]
  Probe Cleavage (pM/s): 2550 pM/s
[2]
  Probe Cleavage (pM/s): 41.9 pM/s
[3]
  Probe Cleavage (pM/s): 7440 pM/s
[4]
  Probe Cleavage (pM/s): 6810 pM/s
[5]
  Probe Cleavage (pM/s): 19300 pM/s
[6]
  Probe Cleavage (pM/s): 6470 pM/s
[7]
  Probe Cleavage (pM/s): 705 pM/s
[8]
  Probe Cleavage (pM/s): 328 pM/s
  Probe Cleavage Kcat/KM: 57000 M⁻¹ s⁻¹
[9]
  Probe Cleavage (pM/s): 18600 pM/s
[10]
  Probe Cleavage (pM/s): 9600 pM/s
[11]
  Probe Cleavage (pM/s): 5.9 pM/s
[12]
  Probe Cleavage (pM/s): 372 pM/s
  Probe Cleavage Kcat/KM: 11000 M⁻¹ s⁻¹
[13]
  Probe Cleavage (pM/s): 5410 pM/s
[14]
  Probe Cleavage (pM/s): 7430 pM/s
[15]
  Probe Cleavage (pM/s): 436 pM/s
[16]
  Probe Cleavage (pM/s): 255 pM/s
  Probe Cleavage Kcat/KM: 24000 M⁻¹ s⁻¹
[17]
  Probe Cleavage (pM/s): 10700 pM/s
[18]
  Probe Cleavage (pM/s): 86.5 pM/s
[19]
  Probe Cleavage (pM/s): 13900 pM/s
[20]
  Probe Cleavage (pM/s): 7500 pM/s
[21]
  Probe Cleavage (pM/s): 5150 pM/s
  Probe Cleavage Kcat/KM: 120000 M⁻¹ s⁻¹
[22]
  Probe Cleavage (pM/s): 7380 pM/s
